Results on two molecules are retold here after article doi:10.1101/2025.07.01.662558 (bioRxiv, 2025).

In this assay the target is T1, Hsp90 from S. oneidensis (Hsp90So), purified, non-labeled (S. oneidensis, UniProt Q8EFF7 1-637).
T1 sequence (looked up): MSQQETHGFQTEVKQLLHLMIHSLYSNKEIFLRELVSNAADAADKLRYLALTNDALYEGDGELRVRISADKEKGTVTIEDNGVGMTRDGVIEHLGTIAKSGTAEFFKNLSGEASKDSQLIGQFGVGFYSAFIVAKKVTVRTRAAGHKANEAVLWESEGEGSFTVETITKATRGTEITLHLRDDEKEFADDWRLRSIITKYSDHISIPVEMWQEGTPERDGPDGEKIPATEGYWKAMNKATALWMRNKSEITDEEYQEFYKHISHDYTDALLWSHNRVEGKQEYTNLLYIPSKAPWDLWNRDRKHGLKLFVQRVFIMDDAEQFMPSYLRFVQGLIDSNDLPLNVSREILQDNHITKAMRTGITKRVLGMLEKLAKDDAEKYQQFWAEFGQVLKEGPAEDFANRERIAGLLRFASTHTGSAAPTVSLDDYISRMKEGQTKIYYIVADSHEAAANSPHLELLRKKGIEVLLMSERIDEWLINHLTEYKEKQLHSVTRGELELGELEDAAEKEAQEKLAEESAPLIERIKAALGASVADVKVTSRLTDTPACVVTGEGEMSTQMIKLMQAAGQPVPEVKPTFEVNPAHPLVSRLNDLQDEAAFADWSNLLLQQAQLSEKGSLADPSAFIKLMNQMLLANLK
Kind of assay: MST.

B1: TilS from S. oneidensis (TilSSo), purified, with 6-His tag (natural protein, UniProt Q8EGF9 1-464, looked up)
chain: MTAQDLSVHIARWLDSLPLQAGSKLVLAYSGGVDSEVLAYGLSEYAKQRPDLRYQLIYVHHGLSPNADNWAKHCQARAAIYGLPVTVERVQLILGPRVSVEAEARKARYQAILPHLNPQDILLTAHHEDDQLETILLALKRGQGPKGLAAMGQIQPLSLADKGSCLQVRPLLDISREMIETFAQTRQLVHIEDESNQDDKYDRNFLRLEIIPRLKARWPSIATTASRSAQLCAEQQAIVETEVSERLPKLLVKAPVTEQTVLKLSELAAQPIEWQGILLRGFIESQEFSLPSYVQLQQMLQQLIHAKEDAKVHIRINDCVLRRFAGMLYLDSGETLSTALHITARDLHQEILTLLTQASAMVEDKIVPFALVTTGPRLRLPKADEVVSLGYGLPGQFRCQPHFRDKGRELKKLWQECAVPPWLRAEVGFLFYNDKLVMAFGLWVEKAFCAQGDEIGLSYLIANP
modifications: RED-tris-NTA 2nd generation dye (NanoTemper) on the 6-His tag
In the case of B1, the equilibrium dissociation constant (Kd) (in general, the free concentration of one partner at which half of the binding sites on the other are occupied at equilibrium, for simple one-to-one binding) came out at 1090 nM.

B2: TilSSoL340P, purified (natural protein, S. oneidensis, UniProt Q8EGF9 1-464, looked up)
chain: MTAQDLSVHIARWLDSLPLQAGSKLVLAYSGGVDSEVLAYGLSEYAKQRPDLRYQLIYVHHGLSPNADNWAKHCQARAAIYGLPVTVERVQLILGPRVSVEAEARKARYQAILPHLNPQDILLTAHHEDDQLETILLALKRGQGPKGLAAMGQIQPLSLADKGSCLQVRPLLDISREMIETFAQTRQLVHIEDESNQDDKYDRNFLRLEIIPRLKARWPSIATTASRSAQLCAEQQAIVETEVSERLPKLLVKAPVTEQTVLKLSELAAQPIEWQGILLRGFIESQEFSLPSYVQLQQMLQQLIHAKEDAKVHIRINDCVLRRFAGMLYLDSGETLSTAPHITARDLHQEILTLLTQASAMVEDKIVPFALVTTGPRLRLPKADEVVSLGYGLPGQFRCQPHFRDKGRELKKLWQECAVPPWLRAEVGFLFYNDKLVMAFGLWVEKAFCAQGDEIGLSYLIANP
modifications: RED-tris-NTA 2nd generation dye (NanoTemper)
In the case of B2, the binding result was “binds”.
